Source: the nanobody polyreactivity screen of Harvey et al. (2022)

Assay: yeast display, Sf9 membrane polyspecificity reagent, FACS + sequencing; frameworks hold sequencing errors
Procedure, shortened: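 A synthetic nanobody library was expressed on Saccharomyces cerevisiae BJ5465 by galactose induction for 36–48 hours. The library was stained for 1 hour at 4 °C with 10% biotinylated, detergent-solubilized Sf9 membrane reagent and enriched with streptavidin microbeads before FACS. Low and high (top ~1%) gates were set on anti-HA fluorescence for expression and streptavidin fluorescence for reagent binding, and each polyreactivity label reflects the gate of origin.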
In the case of “QVQLVDSRGGLVQAGGSLRLSCAASGRTLYSNAKGLSRQAPGKERDLVAAISGSGDTTYYADSVKGRFTISRDNAKNTVYLTMKSLKPEDTAVYYCAADHDSYGAGYEYCGQGTQVTVSS”, the “polyreactivity (PSR sort gate)” value is reported as “low polyreactivity”. In the case of “QVQLVESGGGLVQAGGSLRLSCAASGLIFRTYAMGWYRQAPGKERELVAAISSSGGSTYYADSVKGRFTISRDNAKNTVYLQMNSLKPEDTAVYYCNVGSRRRRYLDRYEYWGQGTQVTVSS”, the “polyreactivity (PSR sort gate)” value is reported as “high polyreactivity”. For “QVQLVESGGGLVQAGGSLRLSCAASGRIFSTYTMGWYSQAPGKDRELVARSSWSAGRTYYADSVKGRFTISRDNAKNSVYLQMNSLKPEETAVYYCAADGYTQRGYDYWGQGTQVTVSS”, the “polyreactivity (PSR sort gate)” value was “high polyreactivity”. In the case of “QVQLVESGGGLVQAGGSLRLSCAASGITFTSNTMGWYRKAPGKERELVAAISKSGGSTYYADSVKGRFTISRDNAKNTVYLQMNSLKPEDTAVYYCAKDSYYYRRDVTVDYWGQGTQVTVSS”, the “polyreactivity (PSR sort gate)” value is reported as “low polyreactivity”. In the case of “QVQLVESGGGLVQAGGSLRLSCAASGFTFGYYAMGWYRQAPGKERELVAAISRSGGRTYYADSVKGRFTISRDNAKNTVYLEMNSLKPEDTAVYYCNAVIHGWTLDYEYWGQGTQVTVSS”, the “polyreactivity (PSR sort gate)” value is reported as “high polyreactivity”. For “HVELVEAGGGVVQAGGSLRLSCAASGRIFRYYVMGWYRPAPGKEREFVASISGRGASTYYADSVKGRFTISRDNAKNTVYIKRNSLKPEDTAVYYCNADVWLLSYVPEYDYWGQGTQVTVSS”, the “polyreactivity (PSR sort gate)” value was “low polyreactivity”. With “QVQLVESGGGLVQAGGSLRLSCAASGLTFPSNAMGWYRPAPGKERELVAAISKRGGRTYYADSVKGRFTISRDNAKNTVYLQMNSLKPEDTAVYYCATPYAYPGTVQYAGYNYWGQGTQVTVSS” the “polyreactivity (PSR sort gate)” value was “high polyreactivity”. In the case of “QVQLVESGGGLVQAGGSLRLSCAASGFIFSNNAMGWSRQAPGKERELVAAITSSGGRTYYADSVKGRFTISRDNAKNTVYLLMNSLKPEDTAVYYCAAARYDIMGYWGQGTQVTVSS”, the “polyreactivity (PSR sort gate)” value is reported as “high polyreactivity”. For “QVQLVESGGGLVQAGGSLRLSCAASGFNFYLNAMGWYRQAPGKERELVAAISSSGGITYYADSVKGRFTISRDNAKNTVYLQMNSLKPEDTADYSCAAYWPKYRYEAERDYWGQGTQVTVSS”, the “polyreactivity (PSR sort gate)” value was “low polyreactivity”. For “QVQRVESGGGLVQAGGSLRLSCAASGSTFTRYGMGWYRQAPGKERELVAAISDRGVSTYYADSVKGRFTISRDNAKNTVYLQMNRMKPEDTAVYYCAAVFWVDILPGDYWGQGTQVTVSS”, the “polyreactivity (PSR sort gate)” value was “low polyreactivity”. In the case of “QVQLVESGGGLVQAGGSLRLSCAASGSTFYYYAMGWYRQAPGKERELVASISFSGGSTYYADSVKGRFTISRDNAKNTVYLEMNRLKPEDTAVYYCGYYYWGQGTQVTVSS”, the “polyreactivity (PSR sort gate)” value is reported as “low polyreactivity”. For “QVQLEESGGGLVQAGGSLRLSCAASGLTFPSNDMGCYRQAPGKERELVAASSKRGGRTYYADYVKGRFTISRDNAKNTVYLQMNSLKPEDTAVYYCATPYAFPGTVQYAGYNYWGQGTQVTVSS”, the “polyreactivity (PSR sort gate)” value was “high polyreactivity”. In the case of “QVQLVESGGGVVQAGGSLRLSCAASGLIIPFYARGWYRQAPGKERELVAAISWSAGSTYYADSVKGRFTMSRDNAKTTVYLQMNSLKPEDTAVYYCATDRNPADFYWGQGTQVTVSS”, the “polyreactivity (PSR sort gate)” value is reported as “low polyreactivity”. For “QVQLVESGGGLVQAGGSLRLSCAASGSIFDGYAMGWNSQAPGKERELVAAISQRGGSTYYADSVKGRFTISRDNAKNTVYLQINSLKPEETAVYYCAADSSYGTRDYWGQGTQVTVSS”, the “polyreactivity (PSR sort gate)” value was “low polyreactivity”. In the case of “QVQLVESGGGLVQAGGSLRLSCAASGSTFDKNDMGWYRQAPGRERELVAAITSSGSSTYYADSVKGRFTISRDNAKNTVYLQMNSLKPADTAVYYCAADKYYYDRLSPSGDYWGQGTQVTVSS”, the “polyreactivity (PSR sort gate)” value is reported as “low polyreactivity”. For “QVQLVESGGGLVQAGGSLRLSCAASGISFNSYTMGGYRQAPGKERELVAAITASGGTTRYADSVKGRFTISRDNAKNTVYLQMNSLKPEYTAVYYCNALPFRYGKRRGYWGQGTQVTVSS”, the “polyreactivity (PSR sort gate)” value was “low polyreactivity”.
